This is an account of results in paper PMC5427286, “Structural model of dodecameric heat-shock protein Hsp21: Flexible N-terminal arms interact with client proteins while C-terminal tails maintain the dodecamer and chaperone activity” (The Journal of Biological Chemistry, 2017).

Series [1] concerns the molecule itself. Kind of series: cross-linking; BS3 at protein/cross-linker ratios of 1:10 and 1:60, protein 25-250 uM, read by denaturing SDS-PAGE.
Series [2] deals with the molecule itself. Kind of series: SAXS; batch SAXS at 2.5, 5 and 10 mg/ml; ensemble optimization method (EOM) with pools of dimers, hexamers and dodecamers.

B1: Hsp21, the 21-kDa chloroplast-localized small heat-shock protein of Arabidopsis thaliana (natural protein)
chain: not shown
notes: N-terminal peptide printed as 1MQDQR5, IXVXI motif 179IDVQI183, rigid bodies of residues 83-184. numbers count on: the mature protein; Dodecamer of two trimer-of-dimer discs; The deposited model lacks part of the NTR; also called Hsp21 WT; Hsp21WT; source: E. coli ER2566, purified (ammonium sulfate precipitation, SEC); copies: 12
As usually defined, the stoichiometry N is a count of units in the complex or per binding partner. On to B1, for which the “stoichiometry N” value in series [1] came out at 12; in series [2], 6.
